Test system: Escherichia coli TOP10
Assay: shrunken log2 fold change of peptide-encoding DNA abundance (4.5 h post-induction vs induction); higher = less antimicrobial activity (less host growth inhibition)
Conditions: time post-induction: 4.5 h; library: site-saturation at positions 5, 18, 19, 20
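Also: peptides expressed intracellularly from a pBAD plasmid library in pooled LB shake-flask culture, induced with 0.3% L-arabinose, DNA abundance read by NGS, three biological replicates, DESeq2 with apeglm shrinkage.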

Row | Sequence | shrunken log2 fold change
1 | RRIRCRPPRLPRPRPRPPCEPRP | -0.0942
2 | RRIRERPPRLPRPRPRPQSRPRP | 0.00145
3 | RRIRERPPRLPRPRPRPDPLPRP | 0.00979
4 | RRIRFRPPRLPRPRPRPCEIPRP | -0.348
5 | RRIRKRPPRLPRPRPRPVHIPRP | -0.021
6 | RRIRRRPPRLPRPRPRPRELPRP | 0.887
7 | RRIRTRPPRLPRPRPRPNGAPRP | -0.0908
8 | RRIRPRPPRLPRPRPRPYQLPRP | -0.441
9 | RRIRARPPRLPRPRPRPCANPRP | 0.102
10 | RRIRDRPPRLPRPRPRPKPYPRP | -0.12
11 | RRIRGRPPRLPRPRPRPFFTPRP | 0.215
12 | RRIRKRPPRLPRPRPRPYFHPRP | -0.225
13 | RRIRCRPPRLPRPRPRPHDCPRP | -0.0825
14 | RRIRCRPPRLPRPRPRPIASPRP | -0.0344
15 | RRIRWRPPRLPRPRPRPRWHPRP | 0.271
16 | RRIRGRPPRLPRPRPRPPRHPRP | 0.818
17 | RRIRCRPPRLPRPRPRPVDTPRP | -0.0338
18 | RRIRLRPPRLPRPRPRPLRSPRP | 0.474
19 | RRIRARPPRLPRPRPRPQKWPRP | 0.301
20 | RRIRERPPRLPRPRPRPYTPPRP | -1
21 | RRIRPRPPRLPRPRPRPSDKPRP | -0.264
22 | RRIRMRPPRLPRPRPRPKIQPRP | 0.158

Row | Sequence | shrunken log2 fold change
23 | RRIRMRPPRLPRPRPRPEFLPRP | 0.113
24 | RRIRPRPPRLPRPRPRPRQRPRP | 0.382
25 | RRIRNRPPRLPRPRPRPHTVPRP | -0.118
26 | RRIRSRPPRLPRPRPRPMSGPRP | 0.131
27 | RRIRVRPPRLPRPRPRPCAYPRP | -0.336
28 | RRIRHRPPRLPRPRPRPSQTPRP | 0.067
29 | RRIRNRPPRLPRPRPRPQVTPRP | -0.134
30 | RRIRTRPPRLPRPRPRPHENPRP | 0.00752
31 | RRIRCRPPRLPRPRPRPNSQPRP | -0.47
32 | RRIRGRPPRLPRPRPRPGTSPRP | 0.278
33 | RRIRGRPPRLPRPRPRPKEFPRP | -0.0157
34 | RRIRSRPPRLPRPRPRPLACPRP | 0.268
35 | RRIRERPPRLPRPRPRPEVHPRP | 0.116
36 | RRIRWRPPRLPRPRPRPMRKPRP | 1.4
37 | RRIRHRPPRLPRPRPRPQAHPRP | -0.0538
38 | RRIRNRPPRLPRPRPRPMWFPRP | 0.0647
39 | RRIRKRPPRLPRPRPRPVCTPRP | 2.01
40 | RRIRERPPRLPRPRPRPRWPPRP | 0.486
41 | RRIRNRPPRLPRPRPRPYVPPRP | -0.0142
42 | RRIRTRPPRLPRPRPRPLFHPRP | -0.193
43 | RRIRVRPPRLPRPRPRPKLIPRP | -0.198
44 | RRIRLRPPRLPRPRPRPWHYPRP | -0.164

Row | Sequence | shrunken log2 fold change
45 | RRIRHRPPRLPRPRPRPEYHPRP | -0.317
46 | RRIRMRPPRLPRPRPRPGQKPRP | 0.142
47 | RRIRTRPPRLPRPRPRPGDKPRP | 0.137
48 | RRIRPRPPRLPRPRPRPGELPRP | 0.192
49 | RRIRRRPPRLPRPRPRPFNEPRP | -0.846
50 | RRIRTRPPRLPRPRPRPTSWPRP | 0.139
51 | RRIRDRPPRLPRPRPRPYFIPRP | -0.324
52 | RRIRYRPPRLPRPRPRPFWQPRP | -0.122
53 | RRIRGRPPRLPRPRPRPAGKPRP | 0.338
54 | RRIRIRPPRLPRPRPRPQDRPRP | -0.007
55 | RRIRTRPPRLPRPRPRPLLCPRP | -0.413
56 | RRIRLRPPRLPRPRPRPALFPRP | 0.488
57 | RRIRFRPPRLPRPRPRPWWFPRP | -0.395
58 | RRIRLRPPRLPRPRPRPWICPRP | -0.213
59 | RRIRQRPPRLPRPRPRPFYHPRP | -0.368
60 | RRIRDRPPRLPRPRPRPVERPRP | -0.00663
61 | RRIRKRPPRLPRPRPRPYRDPRP | -0.0176
62 | RRIRWRPPRLPRPRPRPGAQPRP | 0.655
63 | RRIRFRPPRLPRPRPRPSDPPRP | -0.106
64 | RRIRLRPPRLPRPRPRPSVRPRP | 0.0468
65 | RRIRCRPPRLPRPRPRPHCRPRP | -0.0478
66 | RRIRNRPPRLPRPRPRPHCLPRP | -0.466

Row | Sequence | shrunken log2 fold change
67 | RRIRWRPPRLPRPRPRPGHMPRP | -0.0823
68 | RRIRERPPRLPRPRPRPKKFPRP | -0.524
69 | RRIRTRPPRLPRPRPRPKDVPRP | -0.0302
70 | RRIRYRPPRLPRPRPRPVSHPRP | -0.00492
71 | RRIRWRPPRLPRPRPRPVTMPRP | -0.0519
72 | RRIRMRPPRLPRPRPRPYFWPRP | -0.13
73 | RRIRKRPPRLPRPRPRPIEIPRP | -0.0122
74 | RRIRQRPPRLPRPRPRPIYYPRP | -1.26
75 | RRIRPRPPRLPRPRPRPTMQPRP | 0.393
76 | RRIRSRPPRLPRPRPRPIDEPRP | 0.0325
77 | RRIRCRPPRLPRPRPRPRYWPRP | -0.0818
78 | RRIRLRPPRLPRPRPRPDSAPRP | 0.0605
79 | RRIRLRPPRLPRPRPRPHPRPRP | 0.276
80 | RRIRIRPPRLPRPRPRPKLIPRP | -0.233
81 | RRIRCRPPRLPRPRPRPMSHPRP | -0.207
82 | RRIRHRPPRLPRPRPRPNFTPRP | -0.104
83 | RRIRIRPPRLPRPRPRPGDFPRP | -0.162
84 | RRIRRRPPRLPRPRPRPCNAPRP | -0.105
85 | RRIRERPPRLPRPRPRPLCYPRP | -0.824
86 | RRIRLRPPRLPRPRPRPMVDPRP | -0.00377
87 | RRIRIRPPRLPRPRPRPFIPPRP | -0.697
88 | RRIRDRPPRLPRPRPRPCTSPRP | -0.000687

Row | Sequence | shrunken log2 fold change
89 | RRIRKRPPRLPRPRPRPNKRPRP | -0.0102
90 | RRIRKRPPRLPRPRPRPMELPRP | 0.159
91 | RRIRMRPPRLPRPRPRPWYIPRP | -0.167
92 | RRIRSRPPRLPRPRPRPRRYPRP | -0.0572
93 | RRIRFRPPRLPRPRPRPPKAPRP | 0.332
94 | RRIRIRPPRLPRPRPRPKENPRP | -0.505
95 | RRIRPRPPRLPRPRPRPEIVPRP | 0.0303
96 | RRIRVRPPRLPRPRPRPEPYPRP | -0.2
97 | RRIRTRPPRLPRPRPRPLYYPRP | -0.771
98 | RRIRVRPPRLPRPRPRPHFDPRP | 0.0221
99 | RRIRSRPPRLPRPRPRPELIPRP | -0.123
100 | RRIRDRPPRLPRPRPRPATSPRP | 0.303
101 | RRIRTRPPRLPRPRPRPWGDPRP | -0.273
102 | RRIRNRPPRLPRPRPRPVCCPRP | -0.146
103 | RRIRHRPPRLPRPRPRPQGPPRP | -0.235
104 | RRIRPRPPRLPRPRPRPYDQPRP | -0.15
105 | RRIRFRPPRLPRPRPRPLETPRP | 0.105
106 | RRIRTRPPRLPRPRPRPDAQPRP | 0.193
107 | RRIRMRPPRLPRPRPRPKVTPRP | 0.209
108 | RRIRCRPPRLPRPRPRPIVPPRP | -0.298
109 | RRIRERPPRLPRPRPRPDYAPRP | -0.0187
